Results on 4 molecules are retold here after patent US20190177422A1 (SORRENTO THERAPEUTICS, published 2019).

B1: OX1B2 (antibody, V domains shown)
VH: QVQLVQSGAEVKKPGASVKVSCKASGYTFTSYYMHWVRQAPGQGLEWMGIINPSGGSTSYAQKFQGRVTMTRDTSTSTVYMELSSLRSEDTAVYYCARDYYDSSGYSDYGMDVWGQGTTVTVSS
VL: DIVMTQSPSSLSASVGDRVTITCRASQSISSYLNWYQQKPGKAPKLLIYAASSLQSGVPSRFSGSGSGTDFTLTISSLQPEDFAIYYCQQNYNTRQVTFGQGTRLEIK
B2: OX4D7 (antibody, V domains shown)
VH: QVQLVQSGAEVKKPGASVKVSCKASGYTFTSYYMHWVRQAPGQGLEWMGIINPSGGSTSYAQKFQGRVTMTTDTSTSTAYMELRSLRSDDTAVYYCARDPYSSSWYGAEYFQHWGQGTLVTVSS
VL: QSVLTQPRSVSGSPGQSVTISCTGTSSDGGDYNYVSWYQQHPGQAPKLLIYEVSNRPSGVSNRFSGSKSGNTASLTISGLQAEDEADYYCSSYTSSSTLVVFGGGTKLTVL
B3: OX1D9 (antibody, V domains shown)
VH: QVQLVQSGAEVKKPGASVKVSCKASGYTFTSYGISWVRQALGQRLEWLGWINAGDGETKYSPKFQGRVTITRDTSASTAYMDLSGLTSEDTAVYYCARDFLSTMDYWGQGTLVTVSS
VL: DVVMTQSPSSLSASVGDRVTITCQASQDISNYLNWYQQKPGKAPKLLIYDASNLETGVPSRFSGGGSGTDFTFTISSLQPEDIATYYCQQFDNLPYTFGQGTKVEIK
B4: OX1C4 (antibody, V domains shown)
VH: EVQLVESGAEVKKPGASVKVSCKTSGYTFTGYYLHWVRQAPGQGLEWMGIINPGDGSTRNAQKFEGRVTMTRDTSTSTVYMELSSLSPEDTAVYYCARDLEYIGSGSLSWFDPWGQGTLVTVSS
VL: LPVLTQPASVSGSPGQSITISCSGTSSDFLTYDLVSWYKQQPGKAPKLMIYDVNKRPSGVSDRFSGSKSGNTASLTISGLQAADEADYYCSSYTSSSTPYVFGTGTKVTVL

The assay deals with T1, OX40 on OX40+ HEK293-NFkB-luciferase reporter stable cells (UniProt P43489 29-277).
T1 sequence (looked up): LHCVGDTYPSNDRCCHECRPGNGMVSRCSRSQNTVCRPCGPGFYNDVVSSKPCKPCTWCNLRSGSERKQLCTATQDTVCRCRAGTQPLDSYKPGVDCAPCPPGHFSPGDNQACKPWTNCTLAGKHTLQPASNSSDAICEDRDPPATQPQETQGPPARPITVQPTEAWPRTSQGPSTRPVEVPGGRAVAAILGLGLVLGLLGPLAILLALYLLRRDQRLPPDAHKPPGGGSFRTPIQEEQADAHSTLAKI
In words: cell-based or functional assay.
For the molecule B1, the “luciferase activity (RLUs) of OX40+ HEK293-NFkB-luciferase reporter cells, ~6 h stimulation, antibody at 20 µg/ml” value (“luciferase activity (RLUs)” for short) was > 50 % of signal observed with purified rhOX40L+anti-His.

Regarding B2, the “luciferase activity (RLUs)” value was > 50 % of signal observed with purified rhOX40L+anti-His.

Consider B3, for which the “luciferase activity (RLUs)” value was > 50 % of signal observed with purified rhOX40L+anti-His.

For B4, the “luciferase activity (RLUs)” value is > 50 % of signal observed with purified rhOX40L+anti-His.
